This is an account of results in paper PMC11569192 (Nature Communications, 2024).

For assay [1], the target named is DS-Cav1 (respiratory syncytial virus subtype A, strain A2 | not stated) (UniProt P03420). Put plainly: SEC. For orientation: SEC sorts molecules by how far they enter the pores of the column.
Assay [2] has as its target DS-Cav1-His6 (respiratory syncytial virus subtype A, strain A2 | not stated) (UniProt P03420). Put plainly: cross-linking.
The target is the same in assay [3]. The assay can be described thus: SEC.
The target is the same in assay [4]. The assay can be described thus: negative-stain EM.
Assay [5] concerns the target SC-TM-His6 (respiratory syncytial virus subtype A, strain A2 | not stated) (UniProt P03420). Put plainly: cross-linking.
Assay [6] shares this target. The assay can be described thus: SEC.
In assay [7] the target is sc9-10 DS-Cav1 (respiratory syncytial virus subtype A, strain A2 | not stated) (UniProt P03420). Put plainly: SEC.
For assay [8], the target named is sc9-10 DS-Cav1-His6 (respiratory syncytial virus subtype A, strain A2 | not stated) (UniProt P03420). The assay can be described thus: cross-linking.
The target is the same in assay [9]. Put plainly: SEC.
A further assay addresses UFCM1-P2 (human metapneumovirus, Q1A2Z0 …, UniProt Q1A2Z0, E80D | T127C | N153C | A185P | V155P). Put plainly: ELISA. (In general: In an ELISA, binding on a coated surface is turned into a signal by an enzyme label.)
For a further assay, the target named is UFCM1 (human metapneumovirus, Q1A2Z0 …, UniProt Q1A2Z0, E80D | T127C | N153C | A185P). Put plainly: ELISA.
Another assay has as its target 847A-His6 (human respiratory syncytial virus A, …, UniProt A0A7D5GVC1, I148C | D486S). Put plainly: ELISA.
The target of another assay is T1, UFCM1-P2-iSS (Human metapneumovirus, strain NL/1/00 …, stabilised).
T1 chain: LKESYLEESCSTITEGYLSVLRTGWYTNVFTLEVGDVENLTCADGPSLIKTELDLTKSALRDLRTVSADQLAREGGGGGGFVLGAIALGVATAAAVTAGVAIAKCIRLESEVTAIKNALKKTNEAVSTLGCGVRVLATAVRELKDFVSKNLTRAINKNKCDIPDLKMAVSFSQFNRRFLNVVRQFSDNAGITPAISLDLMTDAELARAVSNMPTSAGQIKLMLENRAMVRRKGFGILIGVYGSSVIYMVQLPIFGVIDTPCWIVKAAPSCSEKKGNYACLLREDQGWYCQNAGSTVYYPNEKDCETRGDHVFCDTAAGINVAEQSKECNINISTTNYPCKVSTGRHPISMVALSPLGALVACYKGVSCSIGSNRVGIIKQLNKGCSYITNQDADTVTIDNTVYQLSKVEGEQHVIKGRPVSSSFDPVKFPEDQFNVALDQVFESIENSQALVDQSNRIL
Put plainly: negative-stain EM.

A further assay deals with T2, sc9-10 DS-Cav1 (Human respiratory syncytial virus A, …, S215P | A149C | Y458C | S46G | K465Q).
T2 chain: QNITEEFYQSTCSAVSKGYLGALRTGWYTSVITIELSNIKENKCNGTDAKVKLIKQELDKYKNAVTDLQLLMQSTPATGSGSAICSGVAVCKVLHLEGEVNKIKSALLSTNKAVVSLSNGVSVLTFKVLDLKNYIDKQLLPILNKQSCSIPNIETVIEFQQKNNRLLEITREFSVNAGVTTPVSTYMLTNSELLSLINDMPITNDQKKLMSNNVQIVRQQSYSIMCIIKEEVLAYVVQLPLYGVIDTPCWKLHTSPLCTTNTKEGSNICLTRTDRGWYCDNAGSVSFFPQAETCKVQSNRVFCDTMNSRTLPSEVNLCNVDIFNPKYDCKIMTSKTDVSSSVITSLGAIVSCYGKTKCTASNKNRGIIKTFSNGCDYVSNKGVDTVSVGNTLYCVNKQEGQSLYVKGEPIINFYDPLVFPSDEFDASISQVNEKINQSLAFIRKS
The assay can be described thus: cell-based or functional assay.

Consider “DS-Cav1 (from UniProt P03420 137-513) (domain or fragment)”, for which the stoichiometry N (usually the number of molecules, sites or subunits per partner or assembly) in assay [1] came to 3.
Turning to “DS-Cav1-His6 (from UniProt P03420 137-513) (domain or fragment)”, the stoichiometry N in assay [2], in [3] and in assay [4] was 3 in each case.
Consider “SC-TM-His6 (from UniProt P03420 26-513) (domain or fragment)”, for which the stoichiometry N in [5] and in [6] was 3 in each case.
Regarding “sc9-10 DS-Cav1 (from UniProt P03420 26-513) (domain or fragment)”, in assay [7], the stoichiometry N was found to be 3.
For the molecule “sc9-10 DS-Cav1-His6 (from UniProt P03420 26-513) (domain or fragment)”, the stoichiometry N in assay [8] and in [9] was 3 in each case.

B1: MPE8 IgG (antibody, V domains shown)
VH: EVQLVESGGGLVKPGGSLRLSCAASGFTFSSYSMNWVRQAPGKGLEWVSSISASSSYSDYADSAKGRFTISRDNAKTSLFLQMNSLRAEDTAIYFCARARATGYSSITPYFDIWGQGTLVTVSS
VL: QSVVTQTPSVSGAPGQRVTISCTGSSSNIGAGYDVHWYQQLPGTAPKLLIYDNNNRPSGVPDRFSASKSGTSASLAITGLQAEDEADYYCQSYDRNLSGVFGTGTKVTVL
B1: the binding result with UFCM1-P2, in the assay with UFCM1 and in the assay with 847A-His6 was “binds” throughout.

B2: MPE8 Fab (Fab, V domains shown)
VH: EVQLVESGGGLVKPGGSLRLSCAASGFTFSSYSMNWVRQAPGKGLEWVSSISASSSYSDYADSAKGRFTISRDNAKTSLFLQMNSLRAEDTAIYFCARARATGYSSITPYFDIWGQGTLVTVSS
VL: QSVVTQTPSVSGAPGQRVTISCTGSSSNIGAGYDVHWYQQLPGTAPKLLIYDNNNRPSGVPDRFSASKSGTSASLAITGLQAEDEADYYCQSYDRNLSGVFGTGTKVTVL
As to B2, in the assay with UFCM1-P2-iSS, the “stoichiometry N” value amounted to 3 Fabs per trimer.

B3: A4 scFv-Fc (scFv, V domains shown)
VH: EVQLVESGGGLVQPGGSLRLSCAASGFTFTTYAMHWVRQSPGKGLEWLASISYDGTSQYYAESVKGRFTVSRDNSKKTLLLQVNSLRPEDTAVYYCAGSPSGHYSWLGYFYAMDVWGQGTLVTVSS
VL: QSALTQPASVSGSPGQSITISCTGASSDVGGYDYVSWYQQHPGKAPKLLIYDVSDRPSGVSNRFSGSKSGNTASLTISGLQTEDEADYYCSSYTSKNTLIFGGGTKLTVL
In the case of B3, in the assay with sc9-10 DS-Cav1, the “live RSV (RSV-A2-GFP) neutralization, IC50, scFv-Fc form” value was 2.1 ng/mL.
